Results as given in US20200207829A1, “CHIMERIC RECEPTORS” (Oxford University Innovation Limited, priority 2017, published 2020).

What was measured:
Experiment in all cases: cell-based or functional assay
[1] = biological target: dCas9(N/C)-synBDKRB2
[2] = biological target: TMt-NES-dCas9VP64
[3] = biological target: TMt-dCas9(N/C)VP64
[4] = biological target: VEGFR2:TEV(N)-NES-dCas9(N)/VEGFR1:TEV(C)-NLS-dCas9(C)VP64 heterodimer, both with TCS(QG)
[5] = biological target: dCas9(N/C)-synVEGFR1/2 (heterodimer of dCas9(N)-synVEGFR2 with TCS(QL) and dCas9(C)-synVEGFR1 with TCS(QG))
[6] = biological target: dCas9(N/C)-synVEGFR1/2RI

Sequence of VEGFA121 (P15692 other isoform, or with tags, fused parts or gaps limits assumed): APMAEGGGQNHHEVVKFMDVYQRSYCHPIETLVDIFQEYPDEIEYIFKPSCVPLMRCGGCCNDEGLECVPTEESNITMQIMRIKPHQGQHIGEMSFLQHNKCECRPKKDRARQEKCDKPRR

Bradykinin (from UniProt P01042 381-389) (peptide)
fold increase in EYFP output activation score (HTLA cells) [1]: > 900 fold
half-maximal effective agonist concentration (EC50), EYFP reporter dose-response, 0.01 nM-10 µM bradykinin [1]: 603 nM

TEV protease (from UniProt P04517 2038-2273) (enzyme)
fold increase in reporter activation score upon TEV expression [2]: 35 fold
fold increase in output reporter activation score [3]: 234 fold

VEGFA121 (from UniProt P15692 181-395) (ligand)
EYFP activation score, VEGFA121-dependent ON/OFF fold differential (HEK-293T reporter assay) [4]: 5.5 fold
ASCL1 mRNA levels, RT-qPCR (FIG. 2F legend) [5]: 50 fold
ASCL1 mRNA levels, RT-qPCR, relative to the no-agonist condition [5]: 48.3 fold
TNFα mRNA, RT-qPCR, relative to no-agonist conditions [5]: 18 fold
TSP-1 mRNA, RT-qPCR, relative to no-agonist conditions [5]: 16.2 fold
fold increase in EYFP activation score (FIG. 2D) [5]: 1180 fold
fold increase in EYFP activation score (HEK-293T reporter assay) [5]: 1000 fold
EYFP target gene induction with VEGFA121 and rapamycin together (AND gate, with FRB-VP64) [6]: > 90 fold
